The record followed here is US20060211075A1, “Enzyme sensors including environmentally sensitive or fluorescent labels and uses thereof” (The Albert Einstein College of Medicine of Yeshiva …, priority 2005, published 2006).

In the first series the target is GST-Lck-SH2 (UniProt P06239). Kind of series: fluorescence change on Src-catalysed phosphorylation in presence of GST-Lck-SH2 (1.25 µM peptide, 5 µM Lck-SH2, 12 nM Src, 1 mM ATP).
GST-Lck-SH2, sequence (P06239 127-224): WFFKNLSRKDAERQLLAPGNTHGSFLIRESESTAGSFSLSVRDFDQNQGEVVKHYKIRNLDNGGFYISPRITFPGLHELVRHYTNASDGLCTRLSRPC
Conditions: not given
For the substance “Src-phosphorylated library peptide with Dap-5 (dapoxyl on Dap) at P+3 of Ac-Glu-Glu-Glu-Ile-Tyr-Gly-Glu-Ile-Glu-Ala”, the Fold change in fluorescence intensity was 3.3 fold. As to “Src-phosphorylated library peptide with Dab-6 (NBD on Dab) at P+3 of Ac-Glu-Glu-Glu-Ile-Tyr-Gly-Glu-Ile-Glu-Ala”, the Fold change in fluorescence intensity was found to be 1.9 fold.

On to “Src-phosphorylated library peptide with Dab-7 (Cascade Yellow on Dab) at P+3 of Ac-Glu-Glu-Glu-Ile-Tyr-Gly-Glu-Ile-Glu-Ala”, for which the Fold change in fluorescence intensity worked out at 2.1 fold. The same measure, in the same setting: the value for “Src-phosphorylated library peptide with Dab-6 (NBD on Dab) at P+2 of Ac-Glu-Glu-Glu-Ile-Tyr-Gly-Glu-Ile-Glu-Ala” was 1.4 fold. Turning to “Src-phosphorylated library peptide with Dap-6 (NBD on Dap) at P+4 of Ac-Glu-Glu-Glu-Ile-Tyr-Gly-Glu-Ile-Glu-Ala”, the Fold change in fluorescence intensity stood at 1.3 fold. For the substance “Src-phosphorylated library peptide with Dap-7 (Cascade Yellow on Dap) at P+3 of Ac-Glu-Glu-Glu-Ile-Tyr-Gly-Glu-Ile-Glu-Ala”, the Fold change in fluorescence intensity came to 1.6 fold.

“Src-phosphorylated library peptide with Dab-7 (Cascade Yellow on Dab) at P+2 of Ac-Glu-Glu-Glu-Ile-Tyr-Gly-Glu-Ile-Glu-Ala”: the Fold change in fluorescence intensity turned out to be 1.7 fold. As to “Src-phosphorylated library peptide with Dap-7 (Cascade Yellow on Dap) at P+4 of Ac-Glu-Glu-Glu-Ile-Tyr-Gly-Glu-Ile-Glu-Ala”, the Fold change in fluorescence intensity was 1.4 fold. On the same count and under the same terms, the value for “Src-phosphorylated library peptide with Dap-6 (NBD on Dap) at P+3 of Ac-Glu-Glu-Glu-Ile-Tyr-Gly-Glu-Ile-Glu-Ala” was 1.3 fold. On to “Src-phosphorylated library peptide with Dap-5 (dapoxyl on Dap) at P+4 of Ac-Glu-Glu-Glu-Ile-Tyr-Gly-Glu-Ile-Glu-Ala”, for which the Fold change in fluorescence intensity is 2.3 fold. On the same count and under the same terms, the value for “Src-phosphorylated library peptide with Dab-7 (Cascade Yellow on Dab) at P+4 of Ac-Glu-Glu-Glu-Ile-Tyr-Gly-Glu-Ile-Glu-Ala” was 1.6 fold; that for “Src-phosphorylated library peptide with Dab-6 (NBD on Dab) at P+4 of Ac-Glu-Glu-Glu-Ile-Tyr-Gly-Glu-Ile-Glu-Ala” was 1.7 fold; that for “Src-phosphorylated library peptide with Dap-7 (Cascade Yellow on Dap) at P+1 of Ac-Glu-Glu-Glu-Ile-Tyr-Gly-Glu-Ile-Glu-Ala” was 1.4 fold. On the same count and under the same terms, the value for “Src-phosphorylated library peptide with Dap-5 (dapoxyl on Dap) at P+2 of Ac-Glu-Glu-Glu-Ile-Tyr-Gly-Glu-Ile-Glu-Ala” was 2.4 fold; that for “Src-phosphorylated library peptide with Dab-5 (dapoxyl on Dab) at P+2 of Ac-Glu-Glu-Glu-Ile-Tyr-Gly-Glu-Ile-Glu-Ala” was 1.6 fold; that for “Src-phosphorylated library peptide with Dab-6 (NBD on Dab) at P+1 of Ac-Glu-Glu-Glu-Ile-Tyr-Gly-Glu-Ile-Glu-Ala” was 1.3 fold. As to “Src-phosphorylated library peptide with Dab-5 (dapoxyl on Dab) at P+3 of Ac-Glu-Glu-Glu-Ile-Tyr-Gly-Glu-Ile-Glu-Ala”, the Fold change in fluorescence intensity amounted to 3.6 fold. For “Src-phosphorylated library peptide with Dap-7 (Cascade Yellow on Dap) at P+2 of Ac-Glu-Glu-Glu-Ile-Tyr-Gly-Glu-Ile-Glu-Ala”, the Fold change in fluorescence intensity amounted to 1.8 fold. On the same count and under the same terms, the value for “Src-phosphorylated library peptide with Dab-7 (Cascade Yellow on Dab) at P+1 of Ac-Glu-Glu-Glu-Ile-Tyr-Gly-Glu-Ile-Glu-Ala” was 1.5 fold; that for “Src-phosphorylated library peptide with Dab-5 (dapoxyl on Dab) at P+1 of Ac-Glu-Glu-Glu-Ile-Tyr-Gly-Glu-Ile-Glu-Ala” was 2.4 fold.

Another series relates to T1, CC[C@H](C)[C@H](NC(=O)[C@H](CCC(=O)O)NC(=O)[C@H](CNc1ccc([N+](=O)[O-])c2nonc12)NC(=O)[C@H](Cc1ccc(O)cc1)NC(=O)[C@@H](NC(=O)[C@H](CCC(=O)O)NC(=O)[C@H](CCC(=O)O)NC(=O)[C@H](CCC(=O)O)NC(C)=O)[C@@H](C)CC)C(=O)N[C@@H](CCC(=O)O)C(=O)N[C@@H](C)C(N)=O.
T1 construct: purchased Invitrogen
Kind of series: purified protein, by the assay type. The class given is biochemical. Particulars: other: Src kinase; Lck-SH2 20 μM; varying peptide; pH 7.5; 30.0 °C. As to the method: The fluorescence change was monitored as a function of time. Control assays in the absence of Lck-SH2 were also performed.
The final Src concentration was 30 nM for peptide 13 and 15 nM for peptide 14.
As a reminder, the Km is the concentration of substrate that gives half-maximal velocity. A word on the Vmax: it is the rate approached at saturating substrate. Take Src (Homo sapiens): the Km was 32 ± 0.5 µM and the Vmax turned out to be 1.4 ± 0.1 µmol/min/mg.

The next series addresses GST-Lck-SH2 (UniProt P06239). Kind of series: fluorescence change on Src-catalysed phosphorylation in presence of GST-Lck-SH2 (1.25 µM peptide, 5 µM Lck-SH2, 12 nM Src, 1 mM ATP); library peptide with -NH(CH2)2SH.
Conditions: not given
On to “Src-phosphorylated library peptide with Dab-5 (dapoxyl on Dab) at P+4 of Ac-Glu-Glu-Glu-Ile-Tyr-Gly-Glu-Ile-Glu-Ala”, for which the Fold change in fluorescence intensity was 4.1 fold. In the case of “Src-phosphorylated library peptide with Dap-6 (NBD on Dap) at P+1 of Ac-Glu-Glu-Glu-Ile-Tyr-Gly-Glu-Ile-Glu-Ala”, the Fold change in fluorescence intensity came to 1.6 fold.

A further series concerns the target GST-Lck-SH2 (UniProt P06239). Description: fluorescence change on Src-catalysed phosphorylation in presence of GST-Lck-SH2; value in parentheses, amide-capped peptide 14.
Conditions: not given
For the substance “phosphorylated peptide 14, Ac-Glu-Glu-Glu-Ile-pTyr-Gly-Glu-Ile-Dab(dapoxyl)-Ala-amide”, the Fold change in fluorescence intensity turned out to be 7.2 fold.

Another series deals with GST-Lck-SH2 (UniProt P06239). Kind of series: fluorescence change on Src-catalysed phosphorylation in presence of GST-Lck-SH2; value in parentheses, amide-capped peptide 13.
Conditions: not given
On to “phosphotyrosine version of peptide 13, Ac-Glu-Glu-Glu-Ile-pTyr-Dap(NBD)-Glu-Ile-Glu-Ala-amide”, for which the Fold change in fluorescence intensity was 1.6 fold.
